Laboratory results: US4587340A, “Biopterin analogs” (Burroughs Wellcome Co., priority 1984, dated 1986)

How the values were obtained:
[1] = substrate: COCC1CNc2nc(N)[nH]c(=O)c2N1; test: Phenylalanine hydroxylase cofactor assay; type: biochemical; conditions: other: rat liver enzyme
[2] = substrate: C[C@H](O)[C@H](O)[C@H]1CNc2nc(N)[nH]c(=O)c2N1; test: purified protein, by the assay type
[3] = substrate: COCC1CNc2nc(N)[nH]c(=O)c2N1; test: Dihydropteridine reductase assay; type: biochemical; conditions: other: quinonoid dihydro form of the pterin
Description: Dihydropteridine reductase was assayed by the method of Craine, et al., (J. Biol. Chem., 247, 6082 (1972)).

[4] = substrate: COCC1CNc2nc(N)[nH]c(=O)c2N1; test: Tryptophan hydroxylase cofactor assay; type: biochemical
Description: Tryptophan hydroxylase was assayed according to a modification of the method of Renson J., et al (Biochem. Biophys. Acta 25: 504 (1966)).

[5] = substrate: C[C@H](O)[C@H](O)[C@H]1CNc2nc(N)[nH]c(=O)c2N1; test: cells, lysate or membranes named

B1: Phenylalanine hydroxylase (Rattus norvegicus) (protein)
chain: MAAVVLENGVLSRKLSDFGQETSYIEDNSNQNGAISLIFSLKEEVGALAKVLRLFEENDINLTHIESRPSRLNKDEYEFFTYLDKRTKPVLGSIIKSLRNDIGATVHELSRDKEKNTVPWFPRTIQELDRFANQILSYGAELDADHPGFKDPVYRARRKQFADIAYNYRHGQPIPRVEYTEEEKQTWGTVFRTLKALYKTHACYEHNHIFPLLEKYCGFREDNIPQLEDVSQFLQTCTGFRLRPVAGLLSSRDFLGGLAFRVFHCTQYIRHGSKPMYTPEPDICHELLGHVPLFSDRSFAQFSQEIGLASLGAPDEYIEKLATIYWFTVEFGLCKEGDSIKAYGAGLLSSFGELQYCLSDKPKLLPLELEKTACQEYSVTEFQPLYYVAESFSDAKEKVRTFAATIPRPFSVRYDPYTQRVEVLDNTQQLKILADSINSEVGILCNALQKIKS
notes: Phenylalanine hydroxylase was prepared from rat liver using hydrophobic chromatography; from tissue; host or cells: rat liver
For B1, the Km [1] was 12.9 µM and the Km ([2]; other: rat liver enzyme) was 7.9 µM.

B2: Dihydropteridine reductase (Homo sapiens) (protein)
chain: MAAAAAAGEARRVLVYGGRGALGSRCVQAFRARNWWVASVDVVENEEASASIIVKMTDSFTEQADQVTAEVGKLLGEEKVDAILCVAGGWAGGNAKSKSLFKNCDLMWKQSIWTSTISSHLATKHLKEGGLLTLAGAKAALDGTPGMIGYGMAKGAVHQLCQSLAGKNSGMPPGAAAIAVLPVTLDTPMNRKSMPEADFSSWTPLEFLVETFHDWITGKNRPSSGSLIQVVTTEGRTELTPAYF
For B2, the Km [3] was 7 µM and the Km ([2]; other: quinonoid dihydro form of the pterin) was 1.8 µM.

B3: Tryptophan hydroxylase (Rattus norvegicus) (protein)
chain: MQPAMMMFSSKYWARRGLSLDSAVPEEHQILGGLTQNKATASKSEDKRSGKDTSESSKTAVVFSLKNEVGGLVRALRLFQEKHVNMLHIESRRSRRRSSEVEIFVDCECGKTEFNELIQLLKFQTTIVTLNPPDNIWTEEEELEDVPWFPRKISELDRCSHRVLMYGTELDADHPGFKDNVYRQRRKYFVDVAMGYKYGQPIPRVEYTEEETKTWGVVFRELSKLYPTHACREYLKNFPLLTKYCGYREDNVPQLEDVSMFLKERSGFTVRPVAGYLSPRDFLAGLAYRVFHCTQYVRHGSDPLYTPEPDTCHELLGHVPLLADPKFAQFSQEIGLASLGASDEDVQKLATCYFFTIEFGLCKQEGQLRAYGAGLLSSIGELKHALSDKACVKAFDPKTTCLQECLITTFQDAYFVSESFEEAKEKMRDFAKSITRPFSVYFNPYTQSIEILKDTRSIENVVQDLRSDLNTVCDALNKMNQYLGI
notes: The preparation of tryptophan hydroxylase was a crude 30,000xg supernatant; from tissue
B3 gave a Km [4] of 103 µM and a Km [5] of 82 µM.
